According to article PMC2132938 (The Journal of Cell Biology, 1999):
Like-named read-outs stand apart in the source and are kept apart here.

Assays:
[1] = target: T1, Ran (recombinant human wild-type Ran, charged with GTP or GDP) (human, UniProt P62826 1-216); experiment: co-IP
[2] = target: T1, Ran (recombinant human wild-type Ran, …); experiment: co-IP; remark: listed apart in the source

Row | Binder | binding result [1] | binding result [2]
1 | transportin (human transportin/karyopherin β2, recombinant) (natural protein) MEYEWKPDEQGLQQILQLLKESQSPDTTIQRTVQQKLEQLNQYPDFNNYLIFVLTKLKSEDEPTRSLSGLILKNNVKAHFQNFPNGVTDFIKSECLNNIGDSSPLIRATVGILITTIASKGELQNWPDLLPKLCSLLDSEDYNTCEGAFGALQKICEDSAEILDSDVLDRPLNIMIPKFLQFFKHSSPKIRSHAVACVNQFIISRTQALMLHIDSFIENLFALAGDEEPEVRKNVCRALVMLLEVRMDRLLPHMHNIVEYMLQRTQDQDENVALEACEFWLTLAEQPICKDVLVRHLPKLIPVLVNGMKYSDIDIILLKGDVEEDETIPDSEQDIRPRFHRSRTVAQQHDEDGIEEEDDDDDEIDDDDTISDWNLRKCSAAALDVLANVYRDELLPHILPLLKELLFHHEWVVKESGILVLGAIAEGCMQGMIPYLPELIPHLIQCLSDKKALVRSITCWTLSRYAHWVVSQPPDTYLKPLMTELLKRILDSNKRVQEAACSAFATLEEEACTELVPYLAYILDTLVFAFSKYQHKNLLILYDAIGTLADSVGHHLNKPEYIQMLMPPLIQKWNMLKDEDKDLFPLLECLSSVATALQSGFLPYCEPVYQRCVNLVQKTLAQAMLNNAQPDQYEAPDKDFMIVALDLLSGLAEGLGGNIEQLVARSNILTLMYQCMQDKMPEVRQSSFALLGDLTKACFQHVKPCIADFMPILGTNLNPEFISVCNNATWAIGEISIQMGIEMQPYIPMVLHQLVEIINRPNTPKTLLENTAITIGRLGYVCPQEVAPMLQQFIRPWCTSLRNIRDNEEKDSAFRGICTMISVNPSGVIQDFIFFCDAVASWINPKDDLRDMFCKILHGFKNQVGDENWRRFSDQFPLPLKERLAAFYGV | binds | –
2 | hGFP–CAS (human CAS fused to hGFP) (natural protein) MELSDANLQTLTEYLKKTLDPDPAIRRPAEKFLESVEGNQNYPLLLLTLLEKSQDNVIKVCASVTFKNYIKRNWRIVEDEPNKICEADRVAIKANIVHLMLSSPEQIQKQLSDAISIIGREDFPQKWPDLLTEMVNRFQSGDFHVINGVLRTAHSLFKRYRHEFKSNELWTEIKLVLDAFALPLTNLFKATIELCSTHANDASALRILFSSLILISKLFYSLNFQDLPEFFEDNMETWMNNFHTLLTLDNKLLQTDDEEEAGLLELLKSQICDNAALYAQKYDEEFQRYLPRFVTAIWNLLVTTGQEVKYDLLVSNAIQFLASVCERPHYKNLFEDQNTLTSICEKVIVPNMEFRAADEEAFEDNSEEYIRRDLEGSDIDTRRRAACDLVRGLCKFFEGPVTGIFSGYVNSMLQEYAKNPSVNWKHKDAAIYLVTSLASKAQTQKHGITQANELVNLTEFFVNHILPDLKSANVNEFPVLKADGIKYIMIFRNQVPKEHLLVSIPLLINHLQAESIVVHTYAAHALERLFTMRGPNNATLFTAAEIAPFVEILLTNLFKALTLPGSSENEYIMKAIMRSFSLLQEAIIPYIPTLITQLTQKLLAVSKNPSKPHFNHYMFEAICLSIRITCKANPAAVVNFEEALFLVFTEILQNDVQEFIPYVFQVMSLLLETHKNDIPSSYMALFPHLLQPVLWERTGNIPALVRLLQAFLERGSNTIASAAADKIPGLLGVFQKLIASKANDHQGFYLLNSIIEHMPPESVDQYRKQIFILLFQRLQNSKTTKFIKSFLVFINLYCIKYGALALQEIFDGIQPKMFGMVLEKIIIPEIQKVSGNVEKKICAVGITKLLTECPPMMDTEYTKLWTPLLQSLIGLFELPEDDTIPDEEHFIDIEDTPGYQTAFSQLAFAGKKEHDPVGQMVNNPKIHLAQSLHKLSTACPGRVPSMVSTSLNAEALQYLQGYLQAASVTLL | – | binds
